{"source": "patent US20230250154A1", "about": "(CYTONICS, published 2023)", "experiment_in_all_cases": "cell-based or functional assay", "key": {"[1]": {"target": "T1, ADAMTS4 (human, UniProt O75173 213-685, limits assumed)", "T1 sequence (looked up)": "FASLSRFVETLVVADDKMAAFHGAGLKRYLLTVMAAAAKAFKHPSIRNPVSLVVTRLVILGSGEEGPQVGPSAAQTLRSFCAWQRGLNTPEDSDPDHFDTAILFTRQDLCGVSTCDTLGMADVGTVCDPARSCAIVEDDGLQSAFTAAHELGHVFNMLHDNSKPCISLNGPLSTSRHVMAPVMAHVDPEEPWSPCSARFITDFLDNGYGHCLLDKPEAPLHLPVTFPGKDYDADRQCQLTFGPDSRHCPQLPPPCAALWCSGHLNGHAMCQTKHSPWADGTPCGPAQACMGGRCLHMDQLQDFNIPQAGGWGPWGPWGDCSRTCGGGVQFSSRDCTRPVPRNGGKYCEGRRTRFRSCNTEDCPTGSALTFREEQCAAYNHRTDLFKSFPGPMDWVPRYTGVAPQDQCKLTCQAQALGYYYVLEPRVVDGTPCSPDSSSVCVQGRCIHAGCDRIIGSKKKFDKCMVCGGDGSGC"}, "[2]": {"target": "T2, ADAMTS5 (human, UniProt Q9UNA0 262-622, limits assumed)", "T2 sequence (looked up)": "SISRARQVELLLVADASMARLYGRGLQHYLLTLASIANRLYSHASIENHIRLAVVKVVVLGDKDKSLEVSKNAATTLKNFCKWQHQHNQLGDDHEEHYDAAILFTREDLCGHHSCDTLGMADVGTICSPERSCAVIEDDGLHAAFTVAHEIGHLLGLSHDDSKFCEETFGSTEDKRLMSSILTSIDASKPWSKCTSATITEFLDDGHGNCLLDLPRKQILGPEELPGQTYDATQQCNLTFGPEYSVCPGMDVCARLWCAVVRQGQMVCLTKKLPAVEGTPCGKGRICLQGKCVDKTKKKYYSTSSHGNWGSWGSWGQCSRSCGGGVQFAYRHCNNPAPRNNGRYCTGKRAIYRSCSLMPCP"}, "[3]": {"target": "MMP13 (human, UniProt P45452 104-471, limits assumed)"}}, "data": [{"binder": "Variant A2M, bait region SEQ ID NO 121 (other) SVSGKPQYMVLVPSLLHTETTEKGCVLLSYLNETVTVSASLESVRGNRSLFTDLEAENDVLHCVAFAVPKSSSNEEVMFLTVQVKGPTQEFKKRTTVMVKNEDSLVFVQTDKSIYKPGQTVKFRVVSMDENFHPLNELIPLVYIQDPKGNRIAQWQSFQLEGGLKQFSFPLSSEPFQGSYKVVVQKKSGGRTEHPFTVEEFVLPKFEVQVTVPKIITILEEEMNVSVCGLYTYGKPVPGHVTVSICRKYSDASDCHGEDSQAFCEKFSGQLNSHGCFYQQVKTKVFQLKRKEYEMKLHTEAQIQEEGTVVELTGRQSSEITRTITKLSFVKVDSHFRQGIPFFGQVRLVDGKGVPIPNKVIFIRGNEANYYSNATTDEHGLVQFSINTTNVMGTSLTVRVNYKDRSPCYGYQWVSEEHEEAHHTAYLVFSPSKSFVHLEPMSHELPCGHTQTVQAHYILNGGTLLGLKKLSFYYLIMAKGGIVRTGTHGLLVKQEDMKGHFSISIPVKSDIAPVARLLIYAVLPTGDVIGDSAKYDVENCLANKVDLSFSPSQSLPASHAHLRVTAAPQSVCALRAVDQSVLLMKPDAELSASSVYNLLPEKDLTGFPGPLNDQDDEDCINRHNVYINGITYTPVSSTNEKDMYSFLEDMGLKAFTNSKIRKPKMCPQLEPESSGEAIPMSIPTSEDLVVQIPENFFGVEAEGTGGERGVLGKLRKYFPETWIWDLVVVNSAGVAEVGVTVPDTITEWKAGAFCLSEDAGLGISSTASLRAFQPFFVELTMPYSVIRGEAFTLKATVLNYLPKCIRVSVQLEASPAFLAVPVEKEQAPHCICANGRQTVSWAVTPKSLGNVNFTVSAEALESQELCGTEVPSVPEHGRKDTVIKPLLVEPEGLEKETTFNSLLCPSGGEVSEELSLKLPPNVVEESARASVSVLGDILGSAMQNTQNLLQMPYGCGEQNMVLFAPNIYVLDYLNETQQLTPEIKSKAIGYLNTGYQRQLNYKHYDGSYSTFGERYGRNQGNTWLTAFVLKTFAQARAYIFIDEAHITQALIWLSQRQKDNGCFRSSGSLLNNAIKGGVEDEVTLSAYITIALLEIPLTVTHPVVRNALFCLESAWKTAQEGDHGSHVYTKALLAYAFALAGNQDKRKEVLKSLNEEAVKKDNSVHWERPQKPKAPVGHFYEPQAPSAEVEMTSYVLLAYLTAQPAPTSEDLTSATNIVKWITKQQNAQGGFSSTQDTVVALHALSKYGAATFTRTGKAAQVTIQSSGTFSSKFQVDNNNRLLLQQVSLPELPGEYSMKVTGEGCVYLQTSLKYNILPEKEEFPFALGVQTLPQTCDEPKAHTSFQISLSVSYTGSRSASNMAIVDVKMVSGFIPLKPTVKMLERSNHVSRTEVSSNHVLIYLDKVSNQTLSLFFTVLQDVPVRDLKPAIVKVYDYYETDEFAIAEYNAPCSKDLGNADYKDDDDKGASHHHHHH", "values": [{"measurement": "Protease Inhibition (% of WT)", "setting": "[1]", "result": "64 % of WT"}, {"measurement": "Protease Inhibition (% of WT)", "setting": "[2]", "result": "68 % of WT"}, {"measurement": "Protease Inhibition (% of WT)", "setting": "[3]", "result": "115 % of WT"}]}]}
